Test results: patent US5854216A, “Marker for growth hormone-releasing factor receptors” (Universite de Montreal, priority 1996, dated 1998)
Square brackets hold non-standard residues; d marks the D form. Peptide text beside a SMILES is read from it.

These compounds were tested against T1, GRF receptors ([^125 I-Tyr^10 ]hGRF(1-44)NH2 binding sites in rat adenopituitary) (Rattus norvegicus, UniProt Q02644) (assay: Competitive binding assay with [^125 I-Tyr^10 ]hGRF(1-44)NH2 on anterior pituitary homogenates). Settings: not given.
T1 construct: from tissue; host or cells: rat anterior pituitary homogenate
T1 sequence (Q02644 23-423 isoform Q02644-2 limits assumed): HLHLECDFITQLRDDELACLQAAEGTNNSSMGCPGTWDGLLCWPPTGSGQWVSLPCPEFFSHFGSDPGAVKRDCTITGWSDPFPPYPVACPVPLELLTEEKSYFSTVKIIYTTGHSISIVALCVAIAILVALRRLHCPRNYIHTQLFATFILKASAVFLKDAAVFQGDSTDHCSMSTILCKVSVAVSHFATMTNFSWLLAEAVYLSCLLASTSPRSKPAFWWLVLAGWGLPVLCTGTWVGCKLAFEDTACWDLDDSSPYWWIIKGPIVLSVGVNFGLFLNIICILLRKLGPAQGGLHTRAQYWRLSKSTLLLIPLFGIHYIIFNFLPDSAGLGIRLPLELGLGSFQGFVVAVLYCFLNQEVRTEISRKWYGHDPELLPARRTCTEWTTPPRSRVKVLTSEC
Protocol: The binding of [^125 I-Tyr^10 ]hGRF(1-44)NH2 was performed on anterior pituitary homogenates as previously described (Gaudreau P. et al., J. Biol. Chem., 1992, 35:1864-1869). Briefly, anterior pituitaries (pit.) were dissected out, rinsed and homogenized for 8 sec with a Micro Ultrasonic Cell Disrupter™, in ice-cold 50 mM Tris-HCl buffer, pH 7.4, containing 5 mM MgCl2 and 5 mM EDTA (1 pit./0.5 ml). These homogenates were used immediately. Competition studies were performed using 35-50 pM [^125 I-Tyr^10 ]hGRF(1-44)NH2 as radio-ligand,50 μl of homogenate (70 to 75 μg of protein), and increasing concentrations of Nε-CF-[Lys^31 ]hGRF or other GRF analogues (0-1000 nM) or with 2.4 μM rGRF(1-29)NH2 for determination of non-specific binding, in a total volume of 300 μl of Tris-HCl buffer, pH 7.4, containing 5 mM EDTA, 5 mM MgCl2 and 0.42% BSA. Incubations were carried out at 23° C. for 60 min and stopped by centrifugation (12,000 g, 5 min, at 4° C.). The radioactivity content in the pellet was measured by gamma counting. The affinity of hGRF(1-29)NH2 was tested in each experiment to assess the validity of the assay and determine the relative affinity of the analogues. […] The Hill values indicate that all these peptides bind to the high and low affinity GRF binding sites found in the anterior pituitary.

IC50 (in words) | affinity for adenopituitary GRF receptors (in words) | Compound
low nanomolar range | high affinity | 4'-benzoyl-phenylalyl^10 ]hGRF(1-29)NH2 [bpa^10]

Same assay, conditions: Table 11

Hill coef. | Compound
0.63 ± 0.07 | CC[C@H](C)[C@H](NC(=O)[C@H](C)NC(=O)[C@H](CC(=O)O)NC(=O)[C@@H](C)NC(=O)[C@@H](N)Cc1ccc(O)cc1)C(=O)N[C@@H](Cc1ccccc1)C(=O)N[C@H](C(=O)N[C@@H](C)C(=O)N[C@@H](CO)C(=O)N[C@H](Cc1ccc(O)cc1)C(=O)N[C@@H](CCCNC(=N)N)C(=O)N[C@@H](CCCCN)C(=O)N[C@H](C(=O)N[C@@H](CC(C)C)C(=O)N[C@@H](C)C(=O)N[C@@H](CCC(N)=O)C(=O)N[C@@H](CC(C)C)C(=O)N[C@@H](CO)C(=O)N[C@@H](C)C(=O)N[C@@H](CCCNC(=N)N)C(=O)N[C@H](CCCCN)C(=O)N[C@@H](CCCCN)C(=O)N[C@@H](CC(C)C)C(=O)N[C@@H](CCC(N)=O)C(=O)N[C@@H](CC(=O)O)C(=O)N[C@H](C(=O)N[C@@H](CCSC)C(=O)N[C@@H](CO)C(=O)N[C@@H](CCCNC(=N)N)C(N)=O)[C@@H](C)CC)C(C)C)[C@@H](C)O (H-Y[dA]DAIFTAS[dY]RKVLAQLSAR[dK]KLQDIMSR-NH2)
0.53 ± 0.06 | CC[C@H](C)[C@H](NC(=O)[C@H](C)NC(=O)[C@H](CC(=O)O)NC(=O)[C@@H](C)NC(=O)[C@@H](N)Cc1ccc(O)cc1)C(=O)N[C@@H](Cc1ccccc1)C(=O)N[C@H](C(=O)N[C@@H](C)C(=O)N[C@@H](CO)C(=O)N[C@@H](Cc1ccc(O)cc1)C(=O)N[C@@H](CCCNC(=N)N)C(=O)N[C@@H](CCCCN)C(=O)N[C@H](C(=O)N[C@@H](CC(C)C)C(=O)N[C@@H](C)C(=O)N[C@@H](CCC(N)=O)C(=O)N[C@@H](CC(C)C)C(=O)N[C@@H](CO)C(=O)N[C@@H](C)C(=O)N[C@@H](CCCNC(=N)N)C(=O)N[C@@H](CCCCN)C(=O)N[C@@H](CCCCN)C(=O)N[C@@H](CC(C)C)C(=O)N[C@@H](CCC(N)=O)C(=O)N[C@@H](CC(=O)O)C(=O)N[C@H](C(=O)N[C@@H](CCSC)C(=O)N[C@@H](CO)C(=O)N[C@@H](CCCNC(=N)N)C(N)=O)[C@@H](C)CC)C(C)C)[C@@H](C)O [D-Ala^2, Ala^8, Ala^15, Lys^22] (H-Y[dA]DAIFTASYRKVLAQLSARKKLQDIMSR-NH2; N-terminus assumed)

Same assay, conditions: Table 11; mean±SD of 2 or mean±SE of 3 experiments for analogues, mean±SE of 11 for hGRF(1-29)NH2

IC50 [nM] | Compound
0.18 ± 0.08 | CC[C@H](C)[C@H](NC(=O)[C@H](C)NC(=O)[C@H](CC(=O)O)NC(=O)[C@@H](C)NC(=O)[C@@H](N)Cc1ccc(O)cc1)C(=O)N[C@@H](Cc1ccccc1)C(=O)N[C@H](C(=O)N[C@@H](C)C(=O)N[C@@H](CO)C(=O)N[C@@H](Cc1ccc(O)cc1)C(=O)N[C@@H](CCCNC(=N)N)C(=O)N[C@@H](CCCCN)C(=O)N[C@H](C(=O)N[C@@H](CC(C)C)C(=O)N[C@@H](C)C(=O)N[C@@H](CCC(N)=O)C(=O)N[C@@H](CC(C)C)C(=O)N[C@@H](CO)C(=O)N[C@@H](C)C(=O)N[C@@H](CCCNC(=N)N)C(=O)N[C@@H](CCCCN)C(=O)N[C@@H](CCCCN)C(=O)N[C@@H](CC(C)C)C(=O)N[C@@H](CCC(N)=O)C(=O)N[C@@H](CC(=O)O)C(=O)N[C@H](C(=O)N[C@@H](CCSC)C(=O)N[C@@H](CO)C(=O)N[C@@H](CCCNC(=N)N)C(N)=O)[C@@H](C)CC)C(C)C)[C@@H](C)O [D-Ala^2, Ala^8, Ala^15, Lys^22] (H-Y[dA]DAIFTASYRKVLAQLSARKKLQDIMSR-NH2; N-terminus assumed)
2.49 ± 0.98 | CC[C@H](C)[C@H](NC(=O)[C@H](C)NC(=O)[C@H](CC(=O)O)NC(=O)[C@@H](C)NC(=O)[C@@H](N)Cc1ccc(O)cc1)C(=O)N[C@@H](Cc1ccccc1)C(=O)N[C@H](C(=O)N[C@@H](CC(N)=O)C(=O)N[C@@H](CO)C(=O)N[C@H](Cc1ccc(O)cc1)C(=O)N[C@@H](CCCNC(=N)N)C(=O)N[C@@H](CCCCN)C(=O)N[C@H](C(=O)N[C@@H](CC(C)C)C(=O)N[C@H](C)C(=O)N[C@@H](CCC(N)=O)C(=O)N[C@@H](CC(C)C)C(=O)N[C@@H](CO)C(=O)N[C@@H](C)C(=O)N[C@@H](CCCNC(=N)N)C(=O)N[C@@H](CCCCN)C(=O)N[C@@H](CCCCN)C(=O)N[C@@H](CC(C)C)C(=O)N[C@@H](CCC(N)=O)C(=O)N[C@@H](CC(=O)O)C(=O)N[C@H](C(=O)N[C@@H](CCSC)C(=O)N[C@@H](CO)C(=O)N[C@@H](CCCNC(=N)N)C(N)=O)[C@@H](C)CC)C(C)C)[C@@H](C)O [D-Ala^2, D-Tyr^10, D-Ala^15, Lys^22] (H-Y[dA]DAIFTNS[dY]RKVL[dA]QLSARKKLQDIMSR-NH2)

Same assay, conditions: Table 11; ratio IC50 of hGRF(1-29)NH2 /IC50 analogue

Relative affinity [%] | Compound
500 ± 91 | CC[C@H](C)[C@H](NC(=O)[C@H](C)NC(=O)[C@H](CC(=O)O)NC(=O)[C@@H](C)NC(=O)[C@@H](N)Cc1ccc(O)cc1)C(=O)N[C@@H](Cc1ccccc1)C(=O)N[C@H](C(=O)N[C@@H](C)C(=O)N[C@@H](CO)C(=O)N[C@H](Cc1ccc(O)cc1)C(=O)N[C@@H](CCCNC(=N)N)C(=O)N[C@@H](CCCCN)C(=O)N[C@H](C(=O)N[C@@H](CC(C)C)C(=O)N[C@@H](C)C(=O)N[C@@H](CCC(N)=O)C(=O)N[C@@H](CC(C)C)C(=O)N[C@@H](CO)C(=O)N[C@@H](C)C(=O)N[C@@H](CCCNC(=N)N)C(=O)N[C@H](CCCCN)C(=O)N[C@@H](CCCCN)C(=O)N[C@@H](CC(C)C)C(=O)N[C@@H](CCC(N)=O)C(=O)N[C@@H](CC(=O)O)C(=O)N[C@H](C(=O)N[C@@H](CCSC)C(=O)N[C@@H](CO)C(=O)N[C@@H](CCCNC(=N)N)C(N)=O)[C@@H](C)CC)C(C)C)[C@@H](C)O (H-Y[dA]DAIFTAS[dY]RKVLAQLSAR[dK]KLQDIMSR-NH2)
1333 ± 31 | CC[C@H](C)[C@H](NC(=O)[C@H](C)NC(=O)[C@H](CC(=O)O)NC(=O)[C@@H](C)NC(=O)[C@@H](N)Cc1ccc(O)cc1)C(=O)N[C@@H](Cc1ccccc1)C(=O)N[C@H](C(=O)N[C@@H](C)C(=O)N[C@@H](CO)C(=O)N[C@@H](Cc1ccc(O)cc1)C(=O)N[C@@H](CCCNC(=N)N)C(=O)N[C@@H](CCCCN)C(=O)N[C@H](C(=O)N[C@@H](CC(C)C)C(=O)N[C@@H](C)C(=O)N[C@@H](CCC(N)=O)C(=O)N[C@@H](CC(C)C)C(=O)N[C@@H](CO)C(=O)N[C@@H](C)C(=O)N[C@@H](CCCNC(=N)N)C(=O)N[C@@H](CCCCN)C(=O)N[C@@H](CCCCN)C(=O)N[C@@H](CC(C)C)C(=O)N[C@@H](CCC(N)=O)C(=O)N[C@@H](CC(=O)O)C(=O)N[C@H](C(=O)N[C@@H](CCSC)C(=O)N[C@@H](CO)C(=O)N[C@@H](CCCNC(=N)N)C(N)=O)[C@@H](C)CC)C(C)C)[C@@H](C)O [D-Ala^2, Ala^8, Ala^15, Lys^22] (H-Y[dA]DAIFTASYRKVLAQLSARKKLQDIMSR-NH2; N-terminus assumed)

The compounds below were run against T2, GRF receptor of rat adenopituitary (rat, UniProt Q02644-2) (assay: displacement of 125I-Tyr10 hGRF(1-44)NH2 from rat anterior pituitary homogenate). Settings: not given.
T2 sequence: T1 sequence (Q02644 23-423 isoform Q02644-2 limits assumed)

IC50 [nM] | Relative affinity (%) against hGRF(1-29)NH2 [%] | Compound
5.77 | 45 | 4'-benzoyl-phenylalyl^10 !hGRF(1-29)NH2 (from UniProt P01286) (peptide)
4.43 | 60 | 4'-nitro-phenylalanine^10 !hGRF(1-29)NH2 (from UniProt P01286) (peptide)
9.97 | 27 | 4'-nitro-phenylanalylalanine^9 !hGRF(1-29)NH2 (from UniProt P01286) (peptide)
 | 1330 | D-Ala^2, Ala^8, Ala^15, Lys^22 analogue of hGRF(1-29)NH2 (Table 11, No. 13) (from UniProt P01286) (peptide)
0.48 | 500 | D-Ala^2, Ala^8, D-Tyr^10, Ala^15, D-Lys^21, Lys^22 analogue of hGRF(1-29)NH2 (Table 11, No. 14) (from UniProt P01286) (peptide)
 | 104 | D-Ala^2, D-Tyr^10,D-Ala^15,Lys^22 ! hGRF(1-29)NH2 (from UniProt P01286) (peptide)
9.65 | 25 | D-Ala^2,D-Tyr^10 ! hGRF(1-29)NH2 (from UniProt P01286) (peptide)
11.6 | 21 | D-Ala^2,D-Tyr^10, D-Lys^21 ! hGRF(1-29)NH2 (from UniProt P01286) (peptide)
 | 490 | D-Ala^2,D-Tyr^10,Lys^22 ! hGRF(1-29)NH2 (from UniProt P01286) (peptide)
